# B1: Focal adhesion kinase 1 (Gallus gallus (Chicken)), Q00944 (parent)
# chain: MAAAYLDPNLNHTPSSSAKTHLGTGMERSPGAMERVLKVFHYFENSSEPTTWASIIRHGDATDVRGIIQKIVDCHKVKNVACYGLRLSHLQSEEVHWLHLDMGVSNVREKFELAHPPEEWKYELRIRYLPKGFLNQFTEDKPTLNFFYQQVKNDYMLEIADQVDQEIALKLGCLEIRRSYGEMRGNALEKKSNYEVLEKDVGLRRFFPKSLLDSVKAKTLRKLIQQTFRQFANLNREESILKFFEILSPVYRFDKECFKCALGSSWIISVELAIGPEEGISYLTDKGANPTHLADFNQVQTIQYSNSEDKDRKGMLQLKIAGAPEPLTVTAPSLTIAENMADLIDGYCRLVNGATQSFIIRPQKEGERALPSIPKLANNEKQGVRSHTVSVSETDDYAEIIDEEDTYTMPSTRDYEIQRERIELGRCIGEGQFGDVHQGIYMSPENPAMAVAIKTCKNCTSDSVREKFLQEALTMRQFDHPHIVKLIGVITENPVWIIMELCTLGELRSFLQVRKFSLDLASLILYAYQLSTALAYLESKRFVHRDIAARNVLVSATDCVKLGDFGLSRYMEDSTYYKASKGKLPIKWMAPESINFRRFTSASDVWMFGVCMWEILMHGVKPFQGVKNNDVIGRIENGERLPMPPNCPPTLYSLMTKCWAYDPSRRPRFTELKAQLSTILEEEKLQQEERMRMESRRQVTVSWDSGGSDEAPPKPSRPGYPSPRSSEGFYPSPQHMVQPNHYQVSGYSGSHGIPAMAGSIYPGQASLLDQTDSWNHRPQEVSAWQPNMEDSGTLDVRGMGQVLPTHLMEERLIRQQQEMEEDQRWLEKEERFLVMKPDVRLSRGSIEREDGGLQGPAGNQHIYQPVGKPDHAAPPKKPPRPGAPHLGSLASLNSPVDSYNEGVKIKPQEISPPPTANLDRSNDKVYENVTGLVKAVIEMSSKIQPAPPEEYVPMVKEVGLALRTLLATVDESLPVLPASTHREIEMAQKLLNSDLAELINKMKLAQQYVMTSLQQEYKKQMLTAAHALAVDAKNLLDVIDQARLKMISQSRPH
# Variants of: B1
# Details: with src_chick SRC
row,Variant,effect of a mutation on the interaction
1,Y397F,disrupting interaction

# Variants of: B1
# Details: with Src
row,Variant,effect of a mutation on the interaction
1,Y397F,decreasing interaction
